{
  "source": "paper PMC2924587",
  "about": "(2010)",
  "molecular_target": "Protein phosphatase 1 alpha 7-330 (Homo sapiens, UniProt P62136)",
  "sequence (P62136 7-330)": "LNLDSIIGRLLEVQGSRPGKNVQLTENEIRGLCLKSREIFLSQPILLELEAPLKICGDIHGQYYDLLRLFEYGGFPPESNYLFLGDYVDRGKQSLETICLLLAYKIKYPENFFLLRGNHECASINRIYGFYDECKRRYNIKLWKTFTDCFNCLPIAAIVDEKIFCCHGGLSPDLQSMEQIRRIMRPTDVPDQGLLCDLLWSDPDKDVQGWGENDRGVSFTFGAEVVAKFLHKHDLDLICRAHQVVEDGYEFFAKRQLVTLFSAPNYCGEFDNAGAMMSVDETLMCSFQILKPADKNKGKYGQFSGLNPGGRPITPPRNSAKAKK",
  "test": "ITC",
  "data": [
    {"binder": "Spinophilin 417-583 (protein) not shown", "values": [
      {"measurement": "Kd", "value": 8.7, "unit": "nM"}
    ]}
  ]
}
